Test results: PMC7232441 (2020)

Target: T1, CsTx-13 (Cupiennius salei, UniProt P83919)
T1 chain 1: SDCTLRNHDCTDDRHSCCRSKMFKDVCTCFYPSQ
T1 chain 2: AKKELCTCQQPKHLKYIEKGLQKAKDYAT
Assay: microscale thermophoresis

B1: CsTx-9 (protein)
chain: KDDKNCIPKHHECTNDKKNCCKKGLTKMKCKCFTVADAKGATSERCACDSSLLQKFGFTGLHIIKGLF
Kd: 370 nM

B2: CsTx-1 (protein)
chain: SCIPKHEECTNDKHNCCRKGLFKLKCQCSTFDDESGQPTERCACGRPMGHQAIETGLNIFRGLFKGKKKNKKTK
Kd: 430 nM
